{"source": "patent US20060263802A1", "about": "(CRUCELL HOLLAND B V, published 2006)", "experiment_in_all_cases": "PEPSCAN ELISA, looped peptide, 10 ug/ml", "key": {"[1]": {"target": "looped/cyclic peptide … (rabies virus strain ERA)"}, "[2]": {"target": "looped/cyclic peptide … (rabies virus strain ERA)", "remark": "listed apart in the source"}, "[3]": {"target": "looped/cyclic peptide … (rabies virus strain ERA)", "remark": "listed apart in the source"}, "[4]": {"target": "looped/cyclic peptide … (rabies virus strain ERA)", "remark": "listed apart in the source"}, "[5]": {"target": "looped/cyclic peptide … (rabies virus strain ERA)", "remark": "listed apart in the source"}, "[6]": {"target": "looped/cyclic peptide … (rabies virus strain ERA)", "remark": "listed apart in the source"}, "[7]": {"target": "looped/cyclic peptide … (rabies virus strain ERA)", "remark": "listed apart in the source"}, "[8]": {"target": "looped/cyclic peptide … (rabies virus strain ERA)", "remark": "listed apart in the source"}, "[9]": {"target": "looped/cyclic peptide … (rabies virus strain ERA)", "remark": "listed apart in the source"}, "[10]": {"target": "looped/cyclic peptide … (rabies virus strain ERA)", "remark": "listed apart in the source"}, "[11]": {"target": "looped/cyclic peptide … (rabies virus strain ERA)", "remark": "listed apart in the source"}, "[12]": {"target": "looped/cyclic peptide … (rabies virus strain ERA)", "remark": "listed apart in the source"}, "[13]": {"target": "looped/cyclic peptide … (rabies virus strain ERA)", "remark": "listed apart in the source"}, "[14]": {"target": "looped/cyclic peptide … (rabies virus strain ERA)", "remark": "listed apart in the source"}, "[15]": {"target": "looped/cyclic peptide … (rabies virus strain ERA)", "remark": "listed apart in the source"}, "[16]": {"target": "looped/cyclic peptide … (rabies virus strain ERA)", "remark": "listed apart in the source"}, "[17]": {"target": "looped/cyclic peptide … (rabies virus strain ERA)", "remark": "listed apart in the source"}, "[18]": {"target": "looped/cyclic peptide … (rabies virus strain ERA)", "remark": "listed apart in the source"}, "[19]": {"target": "looped/cyclic peptide … (rabies virus strain ERA)", "remark": "listed apart in the source"}, "[20]": {"target": "looped/cyclic peptide … (rabies virus strain ERA)", "remark": "listed apart in the source"}, "[21]": {"target": "looped/cyclic peptide … (rabies virus strain ERA)", "remark": "listed apart in the source"}, "[22]": {"target": "looped/cyclic peptide … (rabies virus strain ERA)", "remark": "listed apart in the source"}, "[23]": {"target": "looped/cyclic peptide … (rabies virus strain ERA)", "remark": "listed apart in the source"}, "[24]": {"target": "looped/cyclic peptide … (rabies virus strain ERA)", "remark": "listed apart in the source"}, "[25]": {"target": "looped/cyclic peptide … (rabies virus strain ERA)", "remark": "listed apart in the source"}, "[26]": {"target": "looped/cyclic peptide … (rabies virus strain ERA)", "remark": "listed apart in the source"}, "[27]": {"target": "looped/cyclic peptide … (rabies virus strain ERA)", "remark": "listed apart in the source"}, "[28]": {"target": "looped/cyclic peptide … (rabies virus strain ERA)", "remark": "listed apart in the source"}, "[29]": {"target": "looped/cyclic peptide … (rabies virus strain ERA)", "remark": "listed apart in the source"}, "[30]": {"target": "looped/cyclic peptide … (rabies virus strain ERA)", "remark": "listed apart in the source"}, "[31]": {"target": "looped/cyclic peptide … (rabies virus strain ERA)", "remark": "listed apart in the source"}, "[32]": {"target": "looped/cyclic peptide … (rabies virus strain ERA)", "remark": "listed apart in the source"}, "[33]": {"target": "looped/cyclic peptide … (rabies virus strain ERA)", "remark": "listed apart in the source"}, "[34]": {"target": "looped/cyclic peptide … (rabies virus strain ERA)", "remark": "listed apart in the source"}, "[35]": {"target": "looped/cyclic peptide … (rabies virus strain ERA)", "remark": "listed apart in the source"}, "[36]": {"target": "looped/cyclic peptide … (rabies virus strain ERA)", "remark": "listed apart in the source"}, "[37]": {"target": "looped/cyclic peptide … (rabies virus strain ERA)", "remark": "listed apart in the source"}, "[38]": {"target": "looped/cyclic peptide … (rabies virus strain ERA)", "remark": "listed apart in the source"}, "[39]": {"target": "looped/cyclic peptide … (rabies virus strain ERA)", "remark": "listed apart in the source"}, "[40]": {"target": "looped/cyclic peptide … (rabies virus strain ERA)", "remark": "listed apart in the source"}, "[41]": {"target": "looped/cyclic peptide … (rabies virus strain ERA)", "remark": "listed apart in the source"}, "[42]": {"target": "looped/cyclic peptide … (rabies virus strain ERA)", "remark": "listed apart in the source"}, "[43]": {"target": "looped/cyclic peptide … (rabies virus strain ERA)", "remark": "listed apart in the source"}, "[44]": {"target": "looped/cyclic peptide … (rabies virus strain ERA)", "remark": "listed apart in the source"}, "[45]": {"target": "looped/cyclic peptide … (rabies virus strain ERA)", "remark": "listed apart in the source"}, "[46]": {"target": "looped/cyclic peptide … (rabies virus strain ERA)", "remark": "listed apart in the source"}, "[47]": {"target": "looped/cyclic peptide … (rabies virus strain ERA)", "remark": "listed apart in the source"}, "[48]": {"target": "looped/cyclic peptide … (rabies virus strain ERA)", "remark": "listed apart in the source"}, "[49]": {"target": "looped/cyclic peptide … (rabies virus strain ERA)", "remark": "listed apart in the source"}, "[50]": {"target": "looped/cyclic peptide … (rabies virus strain ERA)", "remark": "listed apart in the source"}, "[51]": {"target": "looped/cyclic peptide … (rabies virus strain ERA)", "remark": "listed apart in the source"}, "[52]": {"target": "looped/cyclic peptide … (rabies virus strain ERA)", "remark": "listed apart in the source"}, "[53]": {"target": "looped/cyclic peptide … (rabies virus strain ERA)", "remark": "listed apart in the source"}, "[54]": {"target": "looped/cyclic peptide … (rabies virus strain ERA)", "remark": "listed apart in the source"}, "[55]": {"target": "looped/cyclic peptide … (rabies virus strain ERA)", "remark": "listed apart in the source"}, "[56]": {"target": "looped/cyclic peptide … (rabies virus strain ERA)", "remark": "listed apart in the source"}, "[57]": {"target": "looped/cyclic peptide … (rabies virus strain ERA)", "remark": "listed apart in the source"}, "[58]": {"target": "looped/cyclic peptide … (rabies virus strain ERA)", "remark": "listed apart in the source"}, "[59]": {"target": "looped/cyclic peptide … (rabies virus strain ERA)", "remark": "listed apart in the source"}, "[60]": {"target": "looped/cyclic peptide … (rabies virus strain ERA)", "remark": "listed apart in the source"}, "[61]": {"target": "looped/cyclic peptide … (rabies virus strain ERA)", "remark": "listed apart in the source"}}}
{"binder": "human monoclonal antibody CRJB (antibody, V domains shown) VH: QITLKETGPTLVKPTQTLTLTCTFSGFSLSTSGVGVGWIRQPPGKALEWVTLIYWDDDKRYSPSLENRVTIRKDTSKNQVALTMTNMDPLDTGTYYCAHRQHISSFPWFDSWGQGTLVTVSS VL: SYVLTQPPSVSVAPGKTARINCGGNNIEYRSVHWYQQKSGQAPVAVIYDNSDRPSGIPERFSGSKSGNTATLTISRVEAGDEADYYCQVWDISSDVVFGGGTKLTVLG", "values": [{"measurement": "OD", "setting": "[1]", "value": 99, "unit": "OD"}, {"measurement": "OD", "setting": "[2]", "value": 87, "unit": "OD"}, {"measurement": "OD", "setting": "[3]", "value": 91, "unit": "OD"}, {"measurement": "OD", "setting": "[4]", "value": 112, "unit": "OD"}, {"measurement": "OD", "setting": "[5]", "value": 104, "unit": "OD"}, {"measurement": "OD", "setting": "[6]", "value": 105, "unit": "OD"}, {"measurement": "OD", "setting": "[7]", "value": 104, "unit": "OD"}, {"measurement": "OD", "setting": "[8]", "value": 103, "unit": "OD"}, {"measurement": "OD", "setting": "[9]", "value": 64, "unit": "OD"}, {"measurement": "OD", "setting": "[10]", "value": 110, "unit": "OD"}, {"measurement": "OD", "setting": "[11]", "value": 102, "unit": "OD"}, {"measurement": "OD", "setting": "[12]", "value": 100, "unit": "OD"}, {"measurement": "OD", "setting": "[13]", "value": 101, "unit": "OD"}, {"measurement": "OD", "setting": "[14]", "value": 99, "unit": "OD"}, {"measurement": "OD", "setting": "[15]", "value": 134, "unit": "OD"}, {"measurement": "OD", "setting": "[16]", "value": 92, "unit": "OD"}, {"measurement": "OD", "setting": "[17]", "value": 96, "unit": "OD"}, {"measurement": "OD", "setting": "[18]", "value": 85, "unit": "OD"}, {"measurement": "OD", "setting": "[19]", "value": 93, "unit": "OD"}, {"measurement": "OD", "setting": "[20]", "value": 85, "unit": "OD"}, {"measurement": "OD", "setting": "[21]", "value": 93, "unit": "OD"}, {"measurement": "OD", "setting": "[22]", "value": 96, "unit": "OD"}, {"measurement": "OD", "setting": "[23]", "value": 88, "unit": "OD"}, {"measurement": "OD", "setting": "[24]", "value": 85, "unit": "OD"}, {"measurement": "OD", "setting": "[25]", "value": 93, "unit": "OD"}, {"measurement": "OD", "setting": "[26]", "value": 83, "unit": "OD"}, {"measurement": "OD", "setting": "[27]", "value": 92, "unit": "OD"}, {"measurement": "OD", "setting": "[28]", "value": 94, "unit": "OD"}, {"measurement": "OD", "setting": "[29]", "value": 100, "unit": "OD"}, {"measurement": "OD", "setting": "[30]", "value": 105, "unit": "OD"}, {"measurement": "OD", "setting": "[31]", "value": 108, "unit": "OD"}, {"measurement": "OD", "setting": "[32]", "value": 104, "unit": "OD"}, {"measurement": "OD", "setting": "[33]", "value": 103, "unit": "OD"}, {"measurement": "OD", "setting": "[34]", "value": 99, "unit": "OD"}, {"measurement": "OD", "setting": "[35]", "value": 85, "unit": "OD"}, {"measurement": "OD", "setting": "[36]", "value": 85, "unit": "OD"}, {"measurement": "OD", "setting": "[37]", "value": 83, "unit": "OD"}, {"measurement": "OD", "setting": "[38]", "value": 82, "unit": "OD"}, {"measurement": "OD", "setting": "[39]", "value": 98, "unit": "OD"}, {"measurement": "OD", "setting": "[40]", "value": 90, "unit": "OD"}, {"measurement": "OD", "setting": "[41]", "value": 79, "unit": "OD"}, {"measurement": "OD", "setting": "[42]", "value": 85, "unit": "OD"}, {"measurement": "OD", "setting": "[43]", "value": 76, "unit": "OD"}, {"measurement": "OD", "setting": "[44]", "value": 85, "unit": "OD"}, {"measurement": "OD", "setting": "[45]", "value": 129, "unit": "OD"}, {"measurement": "OD", "setting": "[46]", "value": 93, "unit": "OD"}, {"measurement": "OD", "setting": "[47]", "value": 92, "unit": "OD"}, {"measurement": "OD", "setting": "[48]", "value": 97, "unit": "OD"}, {"measurement": "OD", "setting": "[49]", "value": 104, "unit": "OD"}, {"measurement": "OD", "setting": "[50]", "value": 100, "unit": "OD"}, {"measurement": "OD", "setting": "[51]", "value": 88, "unit": "OD"}, {"measurement": "OD", "setting": "[52]", "value": 71, "unit": "OD"}, {"measurement": "OD", "setting": "[53]", "value": 76, "unit": "OD"}, {"measurement": "OD", "setting": "[54]", "value": 92, "unit": "OD"}, {"measurement": "OD", "setting": "[55]", "value": 80, "unit": "OD"}, {"measurement": "OD", "setting": "[56]", "value": 106, "unit": "OD"}, {"measurement": "OD", "setting": "[57]", "value": 92, "unit": "OD"}, {"measurement": "OD", "setting": "[58]", "value": 107, "unit": "OD"}, {"measurement": "OD", "setting": "[59]", "value": 90, "unit": "OD"}, {"measurement": "OD", "setting": "[60]", "value": 116, "unit": "OD"}, {"measurement": "OD", "setting": "[61]", "value": 79, "unit": "OD"}]}
